From PMC8049259, “Structure of the E. coli agmatinase, SPEB” (PLoS ONE, 2021)

Target: the molecule itself
Assay: SEC; Superdex 200 10/300 GL, 30 mM Tris pH 7.0, 50 mM sodium chloride; oligomeric state judged from the elution profile

B1: E. coli agmatine ureohydrolase (agmatinase, SPEB) (enzyme, UniProt P60651 1-306, looked up)
chain: MSTLGHQYDNSLVSNAFGFLRLPMNFQPYDSDADWVITGVPFDMATSGRAGGRHGPAAIRQVSTNLAWEHNRFPWNFDMRERLNVVDCGDLVYAFGDAREMSEKLQAHAEKLLAAGKRMLSFGGDHFVTLPLLRAHAKHFGKMALVHFDAHTDTYANGCEFDHGTMFYTAPKEGLIDPNHSVQIGIRTEFDKDNGFTVLDACQVNDRSVDDVIAQVKQIVGDMPVYLTFDIDCLDPAFAPGTGTPVIGGLTSDRAIKLVRGLKDLNIVGMDVVEVAPAYDQSEITALAAATLALEMLYIQAAKKGE
notes: E. coli agmatinase SPEB, UniProt P60651, a 306 residue protein; cloned in pTHT (a pET-28 variant with a TEV protease site in place of the thrombin site); Two Mn2+ ions were modelled in each active site; also called agmatine amidinohydrolase; SPEB-THT (plasmid); source: E. coli BL21(DE3), purified (Ni-NTA, size exclusion chromatography)
- stoichiometry N: 6
